Experimental data taken from the RNAGym collection of RNA variant scans (doi:10.1093/nar/gkz1192).

B1: CPEB3 Ribozyme (parent)
chain: UAACAGGGGGCCACAGCAGAAGCGUUCACGUCGCAGCCCCUGUCAGAUUCUGGUGAAUCUGCGAAUUCUGCUGUAUAUCUC

Variants of: B1
Test: self-cleavage, relative activity (ratio to wild type); higher = more cleavage; in vitro, sequencing
In short: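 Barcoded CPEB3 ribozyme mutants, produced by rounds of error-prone PCR, self-cleaved while being transcribed with T7 RNA polymerase for 5 hours at 37°C and during a subsequent 15 min DNase I step before EDTA was added. Sequencing of template-switched cDNA on Illumina gave cleaved and total reads, and DNA sequencing assigned barcodes to variants. Each variant's relative activity is its cleaved/total read fraction divided by the unmutated ribozyme's fraction, averaged across three batches. A variant needed a minimum of 5 reads.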

| Variant | self-cleavage |
| --- | --- |
| UAACAGGGGGCCACAGCAGAAGCGUUCACGUCGCAGCCCCUGUCAGAUUCUGGUGAAUCGGCGAAUACUGCUGUAUAUCUC [U60G U67A] | 0.26 |
| UAACAGGGGGCCACAGCAGAAGCGUUCACGUCGCAGCCCCUGUCAGAUUCUGGUGAAUCUCCGAAAUCUGCUGUAUAUCUC [G61C U66A] | 0.23 |
| UAACAGGGGGCCACAGCAGAAGCGUUCACGUCGCAGCCCCUGUCAGAUUCUGGUGAAUCUACGAGUUCUGCUGUAUAUCUC [G61A A65G] | 0.39 |
| UAACAGGGGGCCACAGCAGAAGCGUUCACGUCGCAGCCCCUGUCAGAUUCUGGUGAAUCGGCGAAUUCUGCUGUAUACCUC [U60G U78C] | 0.17 |
| UAACAGGGGGCCACAGCAGAAGCGUUCACGUCGCAGCCCCUGUCAGAUUCUGGUGAAUCGGCGAAUUCUGCUGUAUAACUC [U60G U78A] | 0.36 |
| UAACAGGGGGCCACAGCAGAAGCGUUCACGUCGCAGCCCCUGUCAGAUUCUGGUGAAUCCGCGAAUUCUGCUGUACAUCUC [U60C U76C] | 0.51 |
| UAACAGGGGGCCACAGCAGAAGCGUUCACGUCGCAGCCCCUGUCAGAUUCUGGUGAAUCCGCGAAUUCUGCUGUAAAUCUC [U60C U76A] | 0.58 |
| UAACAGGGGGCCACAGCAGAAGCGUUCACGUCGCAGCCCCUGUCAGAUUCUGGUGAAUCCGCGAAUUCUGCUGUAGAUCUC [U60C U76G] | 0.51 |
| UAACAGGGGGCCACAGCAGAAGCGUUCACGUCGCAGCCCCUGUCAGAUUCUGGUGAAUCGGCGAAUUCUGCUGUAUAUCCC [U60G U80C] | 0.63 |
| UAACAGGGGGCCACAGCAGAAGCGUUCACGUCGCAGCCCCUGUCAGAUUCUGGUGAAUCCGCGAAUUCUGCUGUAUAACUC [U60C U78A] | 0.55 |
| UAACAGGGGGCCACAGCAGAAGCGUUCACGUCGCAGCCCCUGUCAGAUUCUGGUGAAUCCGCGAAUUCUGCUGUAUACCUC [U60C U78C] | 0.45 |
| UAACAGGGGGCCACAGCAGAAGCGUUCACGUCGCAGCCCCUGUCAGAUUCUGGUGAAUCCGCGAAUUCUGCUGCAUAUCUC [U60C U74C] | 0.79 |
| UAACAGGGGGCCACAGCAGAAGCGUUCACGUCGCAGCCCCUGUCAGAUUCUGGUGAAUCCGCGAAUUCUGCUGAAUAUCUC [U60C U74A] | 0.96 |
| UAACAGGGGGCCACAGCAGAAGCGUUCACGUCGCAGCCCCUGUCAGAUUCUGGUGAAUCCGCGAAUUCUGCUGGAUAUCUC [U60C U74G] | 0.66 |
| UAACAGGGGGCCACAGCAGAAGCGUUCACGUCGCAGCCCCUGUCAGAUUCUGGUGAAUCUCUGAAUUCUGCUGUAUAUCUC [G61C C62U] | 0.22 |
| UAACAGGGGGCCACAGCAGAAGCGUUCACGUCGCAGCCCCUGUCAGAUUCUGGUGAAUCUACAAAUUCUGCUGUAUAUCUC [G61A G63A] | 0.84 |
| UAACAGGGGGCCACAGCAGAAGCGUUCACGUCGCAGCCCCUGUCAGAUUCUGGUGAAUCUACGAAUUCUGCUGUAUAUAUC [G61A C79A] | 1.16 |

| Variant | self-cleavage |
| --- | --- |
| UAACAGGGGGCCACAGCAGAAGCGUUCACGUCGCAGCCCCUGUCAGAUUCUGGUGAAUCUACGAAUUCCGCUGUAUAUCUC [G61A U69C] | 0.53 |
| UAACAGGGGGCCACAGCAGAAGCGUUCACGUCGCAGCCCCUGUCAGAUUCUGGUGAAUCUACGAAUUCAGCUGUAUAUCUC [G61A U69A] | 0.4 |
| UAACAGGGGGCCACAGCAGAAGCGUUCACGUCGCAGCCCCUGUCAGAUUCUGGUGAAUCUCCUAAUUCUGCUGUAUAUCUC [G61C G63U] | 0.35 |
| UAACAGGGGGCCACAGCAGAAGCGUUCACGUCGCAGCCCCUGUCAGAUUCUGGUGAAUCUACGAAUUCUGCUGCAUAUCUC [G61A U74C] | 1.12 |
| UAACAGGGGGCCACAGCAGAAGCGUUCACGUCGCAGCCCCUGUCAGAUUCUGGUGAAUCGGAGAAUUCUGCUGUAUAUCUC [U60G C62A] | 0.34 |
| UAACAGGGGGCCACAGCAGAAGCGUUCACGUCGCAGCCCCUGUCAGAUUCUGGUGAAUCUACGAAUACUGCUGUAUAUCUC [G61A U67A] | 0.43 |
| UAACAGGGGGCCACAGCAGAAGCGUUCACGUCGCAGCCCCUGUCAGAUUCUGGUGAAUCUACGAAUCCUGCUGUAUAUCUC [G61A U67C] | 0.36 |
| UAACAGGGGGCCACAGCAGAAGCGUUCACGUCGCAGCCCCUGUCAGAUUCUGGUGAAUCUACGAAUGCUGCUGUAUAUCUC [G61A U67G] | 0.25 |
| UAACAGGGGGCCACAGCAGAAGCGUUCACGUCGCAGCCCCUGUCAGAUUCUGGUGAAUCUACGAAUUCUUCUGUAUAUCUC [G61A G70U] | 0.12 |
| UAACAGGGGGCCACAGCAGAAGCGUUCACGUCGCAGCCCCUGUCAGAUUCUGGUGAAUCUACGAAUUCUGCUGUAUUUCUC [G61A A77U] | 0.98 |
| UAACAGGGGGCCACAGCAGAAGCGUUCACGUCGCAGCCCCUGUCAGAUUCUGGUGAAUCUACGAAUUCUGCUGUAUGUCUC [G61A A77G] | 0.8 |
| UAACAGGGGGCCACAGCAGAAGCGUUCACGUCGCAGCCCCUGUCAGAUUCUGGUGAAUCUACGAAUUCUGCUGUACAUCUC [G61A U76C] | 0.88 |
| UAACAGGGGGCCACAGCAGAAGCGUUCACGUCGCAGCCCCUGUCAGAUUCUGGUGAAUCGGCGAAUUCUGUUGUAUAUCUC [U60G C71U] | 0.2 |
| UAACAGGGGGCCACAGCAGAAGCGUUCACGUCGCAGCCCCUGUCAGAUUCUGGUGAAUCUAUGAAUUCUGCUGUAUAUCUC [G61A C62U] | 0.17 |
| UAACAGGGGGCCACAGCAGAAGCGUUCACGUCGCAGCCCCUGUCAGAUUCUGGUGAAUCUACGAAUUCUGCUGUAUACCUC [G61A U78C] | 0.62 |
| UAACAGGGGGCCACAGCAGAAGCGUUCACGUCGCAGCCCCUGUCAGAUUCUGGUGAAUCUCCGAGUUCUGCUGUAUAUCUC [G61C A65G] | 0.39 |
| UAACAGGGGGCCACAGCAGAAGCGUUCACGUCGCAGCCCCUGUCAGAUUCUGGUGAAUCUCCGACUUCUGCUGUAUAUCUC [G61C A65C] | 0.22 |
